Data published in patent US20190309044A1, “POLYPEPTIDES AND USES THEREOF AS A DRUG FOR TREATMENT OF AUTOIMMUNE DISORDERS” (Compugen Ltd., priority 2017, published 2019).

Columns and labels:
SJL/J mice = test: BBB breakdown and inflammation by fluorescence molecular tomography, adoptive transfer R-EAE; format: in vivo, mouse; settings: Day +30
Procedure: Commercially available near infrared (NIR) imaging agents were used to perform tomographic imaging (PerkinElmer Inc., Boston, Mass.). AngioSense®750 was used as a vascular imaging agent, and Cat B® 680 FAST was used to detect regions of increased lysosomal cathepsin B activity. For the in vivo imaging, mice were injected intravenously with 4 nmol of NIR fluorescent agent 24 hrs prior to imaging, and imaged following the last treatment with Control Ig or C1ORF32 ECD-Fc (SEQ ID NO: 42) (Day +30 post-PLP139-151 blast cell transfer). At the time of imaging, mice were anesthetized by administration of sodium pentobarbital (50 mg/kg) and then imaged using the FMT 2500 fluorescence molecular tomography in vivo imaging system (PerkinElmer Inc., Boston, Mass.). […] Appropriate optical filters allowed the collection of both fluorescence and excitation datasets, and the multiple source-detector fluorescence projections were normalized to the paired collection of laser excitation data. […] The collected fluorescence data was reconstructed by FMT 2500 system software (TrueQuant, PerkinElmer Inc., Boston, Mass.) which compensates for the effects of tissue heterogeneity on light scattering, allowing for the quantification of fluorescence signal within multiple organ regions. […] All data was normalized to fluorescence detected in CFA/saline-immunized healthy control mice. […]

[1] = test system: female C57BL/6 recipient mice; test: HY bone marrow transplantation model, chimerism and T cell subtypes by FACS; format: in vivo, mouse
Description: A transplantation model utilizing male bone marrow (BM) cells from C57BL/6 mice transplanted into female mice of the same starin was used to study whether C1ORF32 ECD-Fc induces immune tolerance. In this model BM cells of the male mouse are rejected by the female recipients due to mismatch in the minor histocompatibility antigen encoded by the Y chromosome (Hya). To allow identification of the male cells in the female mice blood, male mice expressing CD45.1 isotype were selected while the female mice carry CD45.2 isotype. This model provides a tool for testing the effect of potential drugs on induction of tolerance towards the grafted cells.
In this model, C1ORF32 ECD-Fc (SEQ ID NO:42) treatment started one week before bone marrow transplantation and continued for five weeks. Female recipient mice were followed for percentage of CD45.1+ and CD45.2+ cells present within the blood.
Female C57BL/6 recipient mice (CD45.2+) were sub-lethally irradiated with 200 rads/cGy 24 hours before transplantation of either female C57Bl/6 (CD45.1+) or male C57Bl/6 (CD45.1+) 5×10^6 bone marrow cells. Recipient mice were allocated into treatment groups as detailed below (n=6 per group). Treatments were given at 300 ug/dose i.p, 3×/wk starting one week prior to transplantation and continued for 4 weeks following transplantation, giving a total of 15 treatments during this 5 weeks period.
1. Female CD45.1 into female CD45.2 2. Male CD45.1 into female CD45.2+ anti-CD40L (300 ug/dose) (Clone MR-1; BioXCell, Cat#BE0017-1) 3. Male CD45.1 into female CD45.2+C1ORF ECD-Fc (SEQ ID NO:42) (300 ug/dose)2 4. Male CD45.1 into female CD45.2+ Control Ig (mouse IgG2a) (300 ug/dose)
Beginning at 2 weeks following bone marrow transplantation, blood samples from the tail were collected from each mouse once a week for 4 weeks. Approximately 2-3 drops of blood were collected per mouse into 200 ul of PBS+EDTA (50 mM), samples were spun down, and RBCs lysed with ammonium chloride. The cells were washed 3× with PBS, stained with the viability dye Aqua Dead Cell Stain (Invitrogen; Cat#L34957), blocked with Fc Receptor block (anti-mouse CD16/32; eBioscience; Cat#14-0161-86), and stained with anti-mouse CD45.1 APC-Cy7 (eBiosciences; Cat#47-0453-80) and anti-mouse CD45.2 FITC (eBioscience; Cat#11-0454-82). The analysis for chimerism was determined by flow cytometric analysis (on total live cells) for the percentage of CD45.1+ versus CD45.2+ cells present in the blood of female recipient mice.
During weeks 6, 7, and 8 the blood samples were also stained to determine the percentage of CD4+ Teff cells and CD4+ Treg cells present within the blood using the cellular markers CD44, CD25, and FoxP3. Details of the Abs used in the flow panels for weeks 6, 7, and 8 are listed below.

B1: C1ORF32 ECD-Fc (SEQ ID NO:42): human-mouse fusion protein: human C1ORF32 ECD fused to mouse immunoglobulin Fc (SEQ ID NO:42) (protein)
chain: LQVTVPDKKKVAMLFQPTVLRCHFSTSSHQPAVVQWKFKSYCQDRMGESLGMSSTRAQSLSKRNLEWDPYLDCLDSRRTVRVVASKQGSTVTLGDFYRGREITIVHDADLQIGKLMWGDSGLYYCIITTPDDLEGKNEDSVELLVLGRTGLLADLLPSFAVEIMGSENLYFQGSGEPRGPTIKPCPPCKCPAPNLLGGPSVFIFPPKIKDVLMISLSPIVTCVVVDVSEDDPDVQISWFVNNVEVHTAQTQTHREDYNSTLRVVSALPIQHQDWMSGKEFKCKVNNKDLPAPIERTISKPKGSVRAPQVYVLPPPEEEMTKKQVTLTCMVTDFMPEDIYVEWTNNGKTELNYKNTEPVLDSDGSYFMYSKLRVEKKNWVERNSYSCSVVHEGLHNHHTTKSFSRTPGK
modifications: Fusion protein human C1ORF32-ECD fused to mouse IgG2a Fc
Q: Which “monocyte/macrophage activity in the brain and spinal cord (lysosomal CathepsinB activity)” value (SJL/J mice; did not reach statistical significance) does the source give for B1 here?
A: decreased monocyte/macrophage activity

Q: What about the “vascular leakage in the brain and spinal cord (AngioSense)” value (SJL/J mice; significantly reduced levels) of the same molecule?
A: decreased vascular leakage

Q: And the “male CD45.1+ cells in the blood of recipient females” value ([1]; by week 4 post transplantation, maintained until week 8, 300 ug/dose i.p. 3x/wk 5 weeks)?
A: highly significant number of male CD45.1+ cells were present

Q: And the “effector/memory CD4+ T cells (CD45.1+/CD4+/CD44hi) in blood” value ([1]; week 6, vs Control Ig)?
A: decrease

Q: And the “CD45.2+ and CD4+ T cells within the spleen” value ([1]; week 8, vs Control Ig)?
A: lower percentage and number

Q: And the “donor Tregs (FoxP3+CD25+) in blood” value ([1]; week 8, vs Control Ig)?
A: significant increase

Q: What about the “donor activated CD4+ T cells (FoxP3-CD25+) in blood” value ([1]; week 8, vs Control Ig) of the same molecule?
A: decrease

Q: What about the “donor effector/memory CD4+ T cells (CD44hi) in blood” value ([1]; week 8, vs Control Ig) of the same molecule?
A: significant increase

Q: What about the “recipients' CD45.2+ T cell populations in blood” value ([1]; week 8, vs Control Ig) of the same molecule?
A: No differences
